Laboratory results from US20240168030A1, “DIRECT FLUORESCENT GLYCAN LABELING” (BIO-TECHNE CORPORATION, priority 2019, published 2024).

Assays:
Format in all cases: biochemical
[1] = Enzymatic synthesis of Le^x and sLe^x by glycan gel electrophoresis, substrate G0
Method: (§1) FIG. 21A. Schematic view of the enzymatic steps for Le^X and sLe^X synthesis on the antibody glycan G0. The glycan short names follow that of FIG. 10. FIG. 21B Kinetic comparison of galactosylation on G0 by B4GalT1, sialyation on G2 by ST3Gal4 and ST6Gal1, and fucosylation on A2[3] by FUT7. The reaction time for B4GalT1 was 10 minutes. The reaction time for ST3Gal4, FUT7 and ST6Gal1 was 5 hours. In each case, the labeling enzyme was subject to a 3-fold serial dilution starting from 1 μg each of B4GalT1, FUT7 and ST6Gal1, and 3 μg ST3Gal4. FIG. 21C. […] Reaction time for both cases was 20 minutes. […] FIG. 21D. […] Reaction time for both cases was 20 minutes.
(§2) For a typical labeling reaction, 1 μg to 5 μg target protein was mixed with 0.2 nmol fluorophore-conjugated GDP-fucose and 0.2 μg of a fucosyltransferase in 30μL 25 mM Tris pH 7.5, 10 mM MnCl2. The mixture was incubated at 37° C. for 30 minutes. […] To release labeled glycans from a glycoprotein, the sample was first denatured by heating at 95° C. for two minutes in the presence of 0.5% SDS and 80 mM β-mercaptoethanol and then renatured with 1% Triton X-100, and finally treated with PNGase F at 10:1 mass ratio at 37° C. for 20 minutes. To release glycans from antibody, a sample was directly treated with Endo S at 10:1 mass ratio at 37° C. for 20 minutes. All samples were separated by sodium dodecyl sulfate—polyacrylamide gel electrophoresis (SDS-PAGE) at […]. For separating labeled glycoproteins and antibodies, 4-20% gradient SDS gel was used. For separating labeled free glycans, 15% or 17% gel was used. After separation, all gels were imaged using a FluorChem M imager (ProteinSimple, Bio-Techne, Minneapolis, MN). For glycoproteins samples, the gel was also imaged with traditional methods such as silver staining or trichloroethanol (TCE) staining.
(§3) For sLe^x synthesis, G0 was first converted to G2 by B4GalT1, then converted to A2[3] by ST3Gal4, and finally converted to A2[3]F2 (carrier of sLe^x) by FUT7 (FIG. 21A). […]

[2] = Le^a synthesis from FUT8-labeled G0 (G0f) quantified with response curve; settings: for Completion of reaction in Le^a synthesis: FIG. 22B
Method: FIG. 22A-FIG. 22C show quantification of Le^a and its intermediate products. […] Lane 1 is labeled G0 (G0f) and lane 2 is labeled G2 (G2f). Lane 3 to 5 contain the intermediate reactions of converting G0f to the final Le^a carrying glycan A1 G1[3]F1f with the indicated enzymes. Lane 6 to lane 13 is a 2-fold serial dilution of G0f starting from 25 ng (19 pmol). The exposure time is 240 ms. The mass inputs of the serial dilution and all the band intensities were listed below the picture. FIG. 22C. The response curve of the serial dilution in FIG. 22B. The slope of the line represents the signal to mass ratio of G0f, which allows the quantification of the bands from lanes 1 to 5.
To evaluate the quantitative aspects of the glycan electrophoresis described in this article, a series of enzymatic reactions towards Le^a synthesis were run along with a 2-fold serial dilution of the FUT8-labeled antibody glycan G0 (G0f) (FIG. 22). Le^a was synthesized from G0f sequentially via the steps of galactosylation by B3GalT2, sialylation by ST3Gal3 and fucosylation by FUT3 (FIG. 22A). Major intermediate products of Le^a synthesis including G1[3]f, A1G1[3]f and A1 G1[3]F1f were observed (FIG. 22B). When the band intensities of the serial dilution of G0f in FIG. 22B were plotted against the masses of the glycan, a response curve with the linear coefficient of 0.9998 was obtained, with the slope of the curve representing the signal to mass ratio (FIG. 22C). The masses of the intermediates of Le^a synthesis were then calculated using the signal to mass ratio. […] In addition, the results also indicate that the sensitivity of the current method for glycan detection is below picomole level.

[3] = Enzymatic synthesis of Le^x and sLe^x by glycan gel electrophoresis, substrate G2; settings: substrate G2, completed product Le^x
Method: as §1, §2
For sLe^x synthesis, G0 was first converted to G2 by B4GalT1, then converted to A2[3] by ST3Gal4, and finally converted to A2[3]F2 (carrier of sLe^x) by FUT7 (FIG. 21A). During these steps, different amounts of enzymes, and multiple reaction times were applied to reveal the intermediate products.
Intermediate products are signs for the progress of each enzymatic step.

[4] = Enzymatic synthesis of sLe^x by glycan gel electrophoresis, substrate A2[3]; settings: for Activity based on reaction completion: completed product sLe^x
Method: as §1, §2, §3

[5] = tested on: fetal bovine fetuin and asialofetuin; test: Labeling of fetuin and asialofetuin by fucosyltransferases with GDP-Cy5-Fuc; settings: GDP-Cy5-Fuc donor, FIG. 9A
Method: FIG. 9A-FIG. 9B show exemplary results of probing substrate glycans of various fucosyltransferases on fetuin and asialofetuin. FIG. 9A. Probing substrate glycans of fucosyltransferases with guanosine 5′-diphosphate activated Cy5 conjugated fucose (GDP-Cy5-Fuc). […] FUT9 labeled itself (indicated by an arrow in the gel). FIG. 9B. Tolerance of Alexa-Fluor®555 (555), Alexa-Fluor®488 (488), and Cy5 by the indicated fucosyltransferases. All reactions were incubated at 37° C. for 30 minutes and then separated on SDS-PAGE and imaged with silver staining (upper panels) and fluorescent imager (lower panels). M, molecular marker.
For a typical labeling reaction, 1 μg to 5 μg target protein was mixed with 0.2 nmol GDP-f-Fuc and 0.2 μg of a fucosyltransferase in 30 μL buffer of 25 mM Tris pH 7.5, 10 mM MnCl2. The mixture was incubated at 37° C. for 30 minutes. The reaction was then separated by sodium dodecyl sulfate—polyacrylamide gel electrophoresis (SDS-PAGE) and the gel was directly imaged using a fluorescent imager FluorChem M ProteinSimple, Bio-Techne, Minneapolis, MN), followed by imaging with traditional protein imaging methods such as silver staining or trichloroethanol (TCE) staining.
The labeled samples were then separated on SDS-PAGE, followed by traditional protein gel imaging and fluorescent imaging.

[6] = band masses from signal to mass ratio, FIG. 22

β-1,4-Galactosyltransferase 1 [B4GalT1]
Time for the complete conversion of G0 to G2 ([1]; FIG. 21B): 10 min | Activity based on reaction completion ([1]; substrate G0, completed product G2): 2.3 pmol/min/µg | Relative activity ([1]; substrate G0, product G2, normalized to FUT6 on sLe^x synthesis): 17

B1: ST3Gal3: recombinant human sialyltransferase that generates α2,3-sialylated N-glycans (protein, UniProt Q11203 1-375, looked up)
CMP-N-acetylneuraminate-beta-1 …: MGLLVFVRNLLLALCLFLVLGFLYYSAWKLHLLQWEEDSNSVVLSFDSAGQTLGSEYDRLGFLLNLDSKLPAELATKYANFSEGACKPGYASALMTAIFPRFSKPAPMFLDDSFRKWARIREFVPPFGIKGQDNLIKAILSVTKEYRLTPALDSLRCRRCIIVGNGGVLANKSLGSRIDDYDIVVRLNSAPVKGFEKDVGSKTTLRITYPEGAMQRPEQYERDSLFVLAGFKWQDFKWLKYIVYKERVSASDGFWKSVATRVPKEPPEIRILNPYFIQEAAFTLIGLPFNNGLMGRGNIPTLGSVAVTMALHGCDEVAVAGFGYDMSTPNAPLHYYETVRMAAIKESWTHNIQREKEFLRKLVKARVITDLSSGI
Completion of reaction in Le^a synthesis [2]: almost completed

B2: FUT6: recombinant α-3 fucosyltransferase active on lactosamine and sialyllactosamine (protein, UniProt P51993 1-359, looked up)
4-galactosyl-N-acetylglucosami …: MDPLGPAKPQWSWRCCLTTLLFQLLMAVCFFSYLRVSQDDPTVYPNGSRFPDSTGTPAHSIPLILLWTWPFNKPIALPRCSEMVPGTADCNITADRKVYPQADAVIVHHREVMYNPSAQLPRSPRRQGQRWIWFSMESPSHCWQLKAMDGYFNLTMSYRSDSDIFTPYGWLEPWSGQPAHPPLNLSAKTELVAWAVSNWGPNSARVRYYQSLQAHLKVDVYGRSHKPLPQGTMMETLSRYKFYLAFENSLHPDYITEKLWRNALEAWAVPVVLGPSRSNYERFLPPDAFIHVDDFQSPKDLARYLQELDKDHARYLSYFRWRETLRPRSFSWALAFCKACWKLQEESRYQTRGIAAWFT
Activity based on reaction completion [3]: 2.3 pmol/min/µg | Activity based on reaction completion [4]: 13.5 pmol/min/µg | Which of fetuin and asialofetuin the fucosyltransferase labeled [5]: labeled both fetuin and asialofetuin

B3: FUT3: fucosyltransferase used for fucosylation in Le^a synthesis (protein, UniProt P21217 1-361, looked up)
3-galactosyl-N-acetylglucosami …: MDPLGAAKPQWPWRRCLAALLFQLLVAVCFFSYLRVSRDDATGSPRAPSGSSRQDTTPTRPTLLILLRTWPFHIPVALSRCSEMVPGTADCHITADRKVYPQADMVIVHHWDIMSNPKSRLPPSPRPQGQRWIWFNLEPPPNCQHLEALDRYFNLTMSYRSDSDIFTPYGWLEPWSGQPAHPPLNLSAKTELVAWAVSNWKPDSARVRYYQSLQAHLKVDVYGRSHKPLPKGTMMETLSRYKFYLAFENSLHPDYITEKLWRNALEAWAVPVVLGPSRSNYERFLPPDAFIHVDDFQSPKDLARYLQELDKDHARYLSYFRWRETLRPRSFSWALDFCKACWKLQQESRYQTVRSIAAWFT
Completion of reaction in Le^a synthesis [2]: almost completed

B4: FUT7: α-3 fucosyltransferase strictly active on sialyllactosamine (protein, UniProt Q11130 1-342, looked up)
Alpha-(1,3)-fucosyltransferase …: MNNAGHGPTRRLRGLGVLAGVALLAALWLLWLLGSAPRGTPAPQPTITILVWHWPFTDQPPELPSDTCTRYGIARCHLSANRSLLASADAVVFHHRELQTRRSHLPLAQRPRGQPWVWASMESPSHTHGLSHLRGIFNWVLSYRRDSDIFVPYGRLEPHWGPSPPLPAKSRVAAWVVSNFQERQLRARLYRQLAPHLRVDVFGRANGRPLCASCLVPTVAQYRFYLSFENSQHRDYITEKFWRNALVAGTVPVVLGPPRATYEAFVPADAFVHVDDFGSARELAAFLTGMNESRYQRFFAWRDRLRVRLFTDWRERFCAICDRYPHLPRSQVYEDLEGWFQA
Activity based on reaction completion [4]: 0.38 pmol/min/µg | Relative activity ([4]; product sLe^x, normalized to FUT6 on sLe^x synthesis): 2.8 | Which of fetuin and asialofetuin the fucosyltransferase labeled [5]: labeled fetuin

B5: B3GalT2: galactosyltransferase used for galactosylation in Le^a synthesis (protein, UniProt O43825 1-422, looked up)
Beta-1,3-galactosyltransferase …: MLQWRRRHCCFAKMTWNAKRSLFRTHLIGVLSLVFLFAMFLFFNHHDWLPGRAGFKENPVTYTFRGFRSTKSETNHSSLRNIWKETVPQTLRPQTATNSNNTDLSPQGVTGLENTLSANGSIYNEKGTGHPNSYHFKYIINEPEKCQEKSPFLILLIAAEPGQIEARRAIRQTWGNESLAPGIQITRIFLLGLSIKLNGYLQRAILEESRQYHDIIQQEYLDTYYNLTIKTLMGMNWVATYCPHIPYVMKTDSDMFVNTEYLINKLLKPDLPPRHNYFTGYLMRGYAPNRNKDSKWYMPPDLYPSERYPVFCSGTGYVFSGDLAEKIFKVSLGIRRLHLEDVYVGICLAKLRIDPVPPPNEFVFNHWRVSYSSCKYSHLITSHQFQPSELIKYWNHLQQNKHNACANAAKEKAGRYRHRKLH
Share of G0f converted to G1[3]f [2, 6]: 53% | Share of G0f converted to G2[3]f [2, 6]: 9%
